Assay results from US7138103.

What was measured:
[1] = biological target: carcinoembryonic antigen (CEA) (UniProt P06731); experiment: analytical size exclusion HPLC, radioiodinated bsAb with 10-20× molar excess of CEA
[2] = biological target: Ac-Lys(DTPA)-Tyr-Lys(DTPA)-Lys(Tscg-Cys)-NH2 (IMP 192); experiment: in vivo, GW-39 tumor in nude mice, calculated from biodistribution assuming one peptide per bsAb; 1 h after peptide
[3] = biological target: Ac-Lys(DTPA)-Tyr-Lys(DTPA)-Lys(Tscg-Cys)-NH2 (IMP 192); experiment: in vivo, GW-39 tumor in nude mice, calculated from biodistribution assuming one peptide per bsAb; 3 h after peptide
[4] = biological target: Ac-Lys(DTPA)-Tyr-Lys(DTPA)-Lys(Tscg-Cys)-NH2 (IMP 192); experiment: in vivo, GW-39 tumor in nude mice, calculated from biodistribution assuming one peptide per bsAb; 24 h after peptide
[5] = biological target: Ac-Lys(DTPA)-Tyr-Lys(DTPA)-Lys(Tscg-Cys)-NH2 (IMP 192); experiment: in vivo, GW-39 tumor in nude mice, calculated from biodistribution assuming one peptide per bsAb; 30 min after peptide
[6] = biological target: mono HSG peptide (peptide containing a single HSG substituent and a thiol); experiment: BIAcore, mono HSG peptide coupled by its thiol to a CM-5 chip

carcinoembryonic antigen (CEA), sequence (P06731 35-685 limits assumed): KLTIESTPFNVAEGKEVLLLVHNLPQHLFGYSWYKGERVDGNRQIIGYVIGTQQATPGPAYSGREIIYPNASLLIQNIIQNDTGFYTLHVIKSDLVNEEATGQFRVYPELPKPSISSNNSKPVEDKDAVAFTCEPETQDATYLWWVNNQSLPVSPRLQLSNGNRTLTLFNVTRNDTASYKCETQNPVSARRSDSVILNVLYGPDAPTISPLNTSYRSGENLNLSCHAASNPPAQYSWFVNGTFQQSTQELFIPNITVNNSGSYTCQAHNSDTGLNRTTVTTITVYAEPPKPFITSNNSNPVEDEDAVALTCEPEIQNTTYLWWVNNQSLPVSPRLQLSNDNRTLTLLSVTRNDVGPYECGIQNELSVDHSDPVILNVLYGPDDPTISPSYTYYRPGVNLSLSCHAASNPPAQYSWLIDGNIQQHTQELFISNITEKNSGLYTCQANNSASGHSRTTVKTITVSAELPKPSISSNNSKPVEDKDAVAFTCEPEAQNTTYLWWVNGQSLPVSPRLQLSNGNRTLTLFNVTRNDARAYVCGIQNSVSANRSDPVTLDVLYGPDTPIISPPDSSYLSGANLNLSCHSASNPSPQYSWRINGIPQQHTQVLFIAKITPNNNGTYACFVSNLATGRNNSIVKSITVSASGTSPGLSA

percent of bsAb bound [1] [%] | % saturation on hMN-14 × 734 (available DTPA binding sites on the tumor bound bsAb filled with 99m-Tc-IMP-192) [2] [%] | % saturation on hMN-14 × 734 (available DTPA binding sites on the tumor bound bsAb filled with 99m-Tc-IMP-192) [3] [%] | % saturation on hMN-14 × 734 (available DTPA binding sites on the tumor bound bsAb filled with 99m-Tc-IMP-192) [4] [%] | % saturation on hMN-14 × 734 (available DTPA binding sites on the tumor bound bsAb filled with 99m-Tc-IMP-192) [5] [%] | Kd [6] [nM] | Substance
90 | 25.8 | 25 | 28 | 25.4 | – | hMN-14 × 734 (Fab × Fab) bsAb (bispecific antibody)
– | – | – | – | – | 1.5 | hMN-14 × m679 F(ab′)2 bsMAb (bispecific antibody)
